Changes are numbered by the printed parent chain. Read-outs that look alike come from different tables or passages of the source.
B1: h1A11.11 (antibody, V domains shown)
VH: EVQLVESGGGLVQPGGSLRLSCAASGFTFSNFPMAWVRQAPGKGLEWVATISSSDGTTYYRDSVKGRFTISRDNAKNSLYLQMNSLRAEDTAVYYCSRGYYNSPFAYWGQGTLVTVSS
VL: DIQMTQSPSSLSASVGDRVTITCRASEDIYSNLAWYQQKPGKAPKLLIFDTNNLADGVPSRFSGSGSGTDFTLTISSLQPEDFATYYCQQYNNYPPTFGQGTKLEIKR
notes: humanized IgG; also called VH.1b/VL.1b 1A11
B2: h1A11.10 (antibody, V domains shown)
VH: B1 VH
VL: B1 VL with A43S, F71S, Y87F
notes: humanized IgG; also called VH.1b/VL.1a 1A11
B3: h1A11.13 (antibody, V domains shown)
VH: B1 VH with A75S, N77S, S78T
VL: B1 VL with F49Y
notes: humanized IgG; also called VH.2a/VL.1 1A11
B4: h1A11.14 (antibody, V domains shown)
VH: B1 VH with A75S, N77S, S78T
VL: B1 VL with A43S, F71S, Y87F
notes: humanized IgG; also called VH.2a/VL.1a 1A11
B5: h1A11.15 (antibody, V domains shown)
VH: B1 VH with A75S, N77S, S78T
VL: B1 VL
notes: humanized IgG; also called VH.2a/VL.1b 1A11
B6: h1A11.12 (antibody, V domains shown)
VH: B1 VH
VL: EIVMTQSPATLSVSPGERATLSCRASEDIYSNLAWYQQKPGQSPRLLIFDTNNLADGVPARFSGSGSGTESTLTISSLQSEDFAVYFCQQYNNYPPTFGQGTKLEIKR
notes: humanized IgG; also called VH.1b/VL.2a 1A11
B7: h1A11.16 (antibody, V domains shown)
VH: B1 VH with A75S, N77S, S78T
VL: B6 VL
notes: humanized IgG; also called VH.2a/VL.2a 1A11
B8: h38H12.1 (antibody, V domains shown)
VH: EVQLVESGGGVVQPGRSLRLSCAASGFTFSNYGMYWVRQAPGKGLEWVAFISHGGGITYYRDSVKGRFTISRDNSKNTLYLQMNSLRAEDTAVYYCARLNWELGIDYWGQGTMVTVSS
VL: DIQMTQSPSSLSASVGDRVTITCRASEDIYSNLAWYQQKPGKAPKLLIYAANRLQDGVPSRFSGSGSGTDFTLTISSLQPEDFATYYCLQGSKFPLTFGQGTKLEIKR
notes: humanized IgG; also called VH.1/VL.1 38H12
B9: h38H12.2 (antibody, V domains shown)
VH: B8 VH
VL: B8 VL with Q38K, A43S, F71Y, Y87F
notes: humanized IgG; also called VH.1/VL.1a 38H12
B10: h38H12.3 (antibody, V domains shown)
VH: B8 VH
VL: B8 VL with F71Y
notes: humanized IgG; also called VH.1/VL.1b 38H12
B11: h38H12.4 (antibody, V domains shown)
VH: B8 VH
VL: EIVMTQSPATLSVSPGERATLSCRASEDIYSNLAWYQKKPGQSPRLLIYAANRLQDGVPARFSGSGSGTEYTLTISSLQSEDFAVYFCLQGSKFPLTFGQGTKLEIKR
notes: humanized IgG; also called VH.1/VL.2a 38H12
B12: h1A11.B5 (antibody, V domains shown)
VH: B1 VH with S30R, N31Y, A35S, T50S, S53G, T57W, T58A, Y59S, S97A, Y107S
VL: DIQMTQSPSSLSASVGDRVTITCRASQDIWNNLAWYQQKPGKSPKLLIFDTSYLADGVPSRFSGSGSGTDFTLTISSLQPEDFATYYCQQYDWYPPTFGQGTKLEIK
notes: also called h1A11.B5 VH / h1A11.B5 VL

What was measured:
[1] = target: T1, human DLL4 extracellular domain (human, UniProt Q9NR61 27-529); assay: competition ELISA vs Notch-1
T1 construct: purified recombinant ECD; biotin-labelled or 6xHis-tagged depending on the assay; also called huDLL4 ECD; hu DLL4 ECD
Experimental: (§1) Plates were then washed 3 times with wash buffer (PBS, 0.05% Tween-20) and blocked with 200 μl/well blocking buffer (D-PBS, 1% BSA, 1 mM CaCl₂, 0.05% Tween-20) for 1 hour at 25° C. While blocking, biotin labeled DLL4 extracellular domain (14 nM) was mixed with antibody (30 pM-66 nM, 3-fold serial dilution in blocking buffer) for 1 hour at 25° C. with shaking. Assay plates were washed after blocking, and incubated with DLL4/antibody mixtures (100 μl/well, 1 hour at 25° C. with shaking). Plates were washed again and 100 μl/well streptavidin conjugated with HRP (Fitzgerald #65R-S104PHRPx, diluted 1:5,000 in blocking buffer) was added for 1 hour at 25° C. with shaking. After a final wash, plates were developed using 100 μl/well substrate (TMB Sigma #T8665), and the reaction was stopped using 100 μl/well 1N HCl, and the absorbance was read at 450 nm. Data were analyzed using Graphpad Prism software and IC₅₀ values were reported as the concentration of antibody to achieve 50% reduction of DLL4 bound to Notch1.
(§2) Purified variants were further characterized for their affinities for human, murine and cynomolgus DLL4 by binding ELISA (Example 1.2, Method 2), by Biacore (Example 1.1), and by Flow Cytometry (FACS). […] The humanized variants were then tested for their functionality with human and murine DLL4 by competition ELISA (Example 1.3) and by Notch reporter assay (Example 1.6).

[2] = target: T2, mouse DLL4 extracellular domain (mouse, UniProt Q9JI71 27-532); assay: competition ELISA vs Notch-1
T2 construct: extracellular domain; also called muDLL4 ECD; murine DLL4
Experimental: as §1, §2

[3] = target: T1, human DLL4 extracellular domain; assay: SPR (Biacore)
Experimental: (§3) The BIACORE® surface plasmon resonance assay (Biacore, Inc., Piscataway, N.J., US) determines the affinity of antibodies with kinetic measurements of on-rate and off-rate constants. Binding of DLL4 antibodies to a purified recombinant DLL4 extracellular domain (ECD) was determined by surface plasmon resonance-based measurements with a Biacore® instrument (either a Biacore 2000, Biacore 3000, or Biacore T100; GE Healthcare, Piscataway, N.J., US) using running buffer HBS-EPB (10 mM HEPES [pH 7.4], 150 mM NaCl, 3 mM EDTA, 0.1 mg/ml BSA and 0.005% surfactant P20) at 25° C. For example, approximately 9000 RU of goat anti-human Fc specific polyclonal antibody (Thermo Fisher Scientific Inc., Rockford, Ill., US) diluted in 10 mM sodium acetate (pH 4.5) is directly immobilized across a CMS research grade biosensor chip using a standard amine coupling kit according to manufacturer's instructions and procedures at 25 μg/ml. Unreacted moieties on the biosensor surface were blocked with ethanolamine. For kinetic analysis, rate equations derived from the 1:1 Langmuir binding model were fitted simultaneously to multiple antigen injections (using global fit analysis) with the use of Scrubber 2 (BioLogic Software), Biacore Biaevaluation 4.0.1 software or Biacore T100 Evaluation software. Purified antibodies were diluted in running buffer for capture across goat anti-human Fc reaction surfaces. Antibodies to be captured as a ligand (1 μg/ml) were injected over reaction matrices at a flow rate of 10 μl/min. During the assay, all measurements were referenced against the capture surface alone (i.e., with no captured anti-DLL4 antibody). […] The equilibrium dissociation constant KD (M) of the reaction between antibodies and the target antigen was then calculated from the kinetic rate constants by the following formula: KD=Koff/Kₒₙ. Binding was recorded as a function of time and kinetic rate constants were calculated.

[4] = target: T2, mouse DLL4 extracellular domain; assay: SPR (Biacore)
Experimental: as §3

[5] = target: T3, human DLL4, full length, on cells (human, UniProt Q9NR61 27-685); assay: cell-based or functional assay
[6] = target: T1, human DLL4 extracellular domain; assay: binding ELISA
Experimental: (§4) Plates were then washed 3 times. 100 μl/well of recombinant rat/human chimeric or recombinant human anti-DLL4 antibodies were then added to the plate (0.00164-27 nM, 4-fold serial dilution in ELISA buffer=PBST, 10% Superblock (Pierce #37515)) for 1 hour at 25° C. with shaking and then washed again 3 times. Plates were incubated with goat anti-human HRP (Pierce #31412) (1:40,000 dilution in ELISA buffer, 100 μl/well) for 1 hour at 25° C. with shaking, then washed 3 times. After the final wash, plates were incubated with 100 μl/well ELISA substrate (Sigma #T8665). The reaction was stopped after 8 minutes at 25° C. with 100 μl/well 1N HCl and the absorbance was read at 450 nm. Data were analyzed using Graphpad Prism software, and EC50 values were reported.
as §2

[7] = target: T2, mouse DLL4 extracellular domain; assay: binding ELISA
Experimental: as §4, §2

[8] = target: T4, cynomolgus monkey DLL4 extracellular domain (cynomolgus monkey); assay: binding ELISA
T4 construct: extracellular domain; also called cynoDLL4 ECD; Cyno DLL4
Experimental: as §4, §2

[9] = target: T1, human DLL4 extracellular domain; assay: capture ELISA, biotin-huDLL4 ECD
[10] = target: T3, human DLL4, full length, on cells; assay: FACS, DLL4 cells
Experimental: Stable cell lines overexpressing cell-surface DLL4 were harvested from tissue culture flasks, washed four times and resuspended in phosphate buffered saline (PBS) containing 1% bovine serum albumin and 1 mM CaCl₂ (FACS buffer). 1.5×10⁵ cells were incubated with antibodies at various concentrations in FACS buffer for 60 minutes on ice. […] Following an incubation on ice (4° C., 60 minutes), cells were washed three times and resuspended in FACS buffer. Fluorescence was measured using a Becton Dickinson FACSCalibur-HTS (Becton Dickinson, San Jose, Calif., US). Data were analyzed using Graphpad Prism software and EC₅₀ values were reported as the concentration of antibody to achieve 50% of maximal DLL4 antibodies binding to DLL4 expressing cells.
The good binder variants, as determined by binding ELISA, were assessed by Biacore (Example 1.1) concurrently with cell based assay screens. The KD for human DLL4 was similar for all variants (see, Biacore, KD in Table 18, below).

[11] = target: T1, human DLL4 extracellular domain; assay: SPR (Biacore); remark: listed apart in the source
Experimental: as §3

[12] = target: T4, cynomolgus monkey DLL4 extracellular …; assay: SPR (Biacore)
Experimental: as §3

[13] = target: T2, mouse DLL4 extracellular domain; assay: SPR (Biacore); remark: listed apart in the source
Experimental: as §3

[14] = target: T5, rat DLL4 extracellular domain (rat, UniProt D3ZHH1 28-530); assay: SPR (Biacore)
T5 construct: extracellular domain; also called ratDLL4 ECD
Experimental: as §3

T3 sequence (Q9NR61 27-685 limits assumed): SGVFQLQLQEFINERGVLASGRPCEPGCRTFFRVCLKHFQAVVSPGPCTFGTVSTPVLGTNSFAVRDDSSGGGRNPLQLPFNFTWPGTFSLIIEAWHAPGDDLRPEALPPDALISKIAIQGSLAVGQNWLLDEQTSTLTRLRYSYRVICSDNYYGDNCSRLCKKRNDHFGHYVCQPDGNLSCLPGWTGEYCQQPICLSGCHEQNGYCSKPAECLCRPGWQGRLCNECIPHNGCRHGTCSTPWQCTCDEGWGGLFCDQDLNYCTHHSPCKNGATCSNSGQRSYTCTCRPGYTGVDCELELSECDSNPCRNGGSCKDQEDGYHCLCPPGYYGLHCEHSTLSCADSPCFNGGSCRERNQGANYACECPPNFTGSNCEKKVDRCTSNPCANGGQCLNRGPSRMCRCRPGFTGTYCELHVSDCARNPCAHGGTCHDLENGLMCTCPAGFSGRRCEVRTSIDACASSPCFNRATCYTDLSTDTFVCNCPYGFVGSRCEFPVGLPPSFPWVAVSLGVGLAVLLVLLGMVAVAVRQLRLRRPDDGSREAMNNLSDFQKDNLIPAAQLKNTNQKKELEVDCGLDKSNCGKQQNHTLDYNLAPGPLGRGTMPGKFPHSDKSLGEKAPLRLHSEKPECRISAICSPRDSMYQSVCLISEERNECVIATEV
T5 sequence (D3ZHH1 28-530): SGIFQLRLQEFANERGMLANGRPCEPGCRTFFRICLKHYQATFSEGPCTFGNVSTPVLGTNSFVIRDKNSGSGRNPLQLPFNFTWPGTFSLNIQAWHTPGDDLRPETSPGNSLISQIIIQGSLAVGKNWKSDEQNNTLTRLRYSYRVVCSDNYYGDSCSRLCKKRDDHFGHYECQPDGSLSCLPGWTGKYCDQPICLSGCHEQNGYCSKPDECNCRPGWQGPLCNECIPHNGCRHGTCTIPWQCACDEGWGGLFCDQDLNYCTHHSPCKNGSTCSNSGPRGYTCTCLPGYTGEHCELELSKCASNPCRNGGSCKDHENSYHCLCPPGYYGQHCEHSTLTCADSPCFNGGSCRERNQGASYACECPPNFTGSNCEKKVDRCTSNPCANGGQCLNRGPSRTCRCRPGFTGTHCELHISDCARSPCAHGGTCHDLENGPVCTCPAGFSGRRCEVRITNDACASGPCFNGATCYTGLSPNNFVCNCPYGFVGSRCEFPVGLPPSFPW
T2 sequence (Q9JI71 27-532): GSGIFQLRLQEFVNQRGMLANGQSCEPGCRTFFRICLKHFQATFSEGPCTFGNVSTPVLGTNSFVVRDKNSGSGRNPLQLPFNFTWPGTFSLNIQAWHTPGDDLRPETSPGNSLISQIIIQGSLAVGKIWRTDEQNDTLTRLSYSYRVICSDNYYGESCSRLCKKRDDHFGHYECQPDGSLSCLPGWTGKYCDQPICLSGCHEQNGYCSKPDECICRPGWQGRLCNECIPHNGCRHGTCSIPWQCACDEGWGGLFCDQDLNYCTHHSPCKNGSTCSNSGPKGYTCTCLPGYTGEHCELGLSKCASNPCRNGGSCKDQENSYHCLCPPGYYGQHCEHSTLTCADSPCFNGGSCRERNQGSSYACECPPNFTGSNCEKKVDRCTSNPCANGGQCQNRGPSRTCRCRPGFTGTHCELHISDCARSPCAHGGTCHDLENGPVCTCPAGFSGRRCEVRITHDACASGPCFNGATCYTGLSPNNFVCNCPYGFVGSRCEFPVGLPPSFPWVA
T1 sequence (Q9NR61 27-529 limits assumed): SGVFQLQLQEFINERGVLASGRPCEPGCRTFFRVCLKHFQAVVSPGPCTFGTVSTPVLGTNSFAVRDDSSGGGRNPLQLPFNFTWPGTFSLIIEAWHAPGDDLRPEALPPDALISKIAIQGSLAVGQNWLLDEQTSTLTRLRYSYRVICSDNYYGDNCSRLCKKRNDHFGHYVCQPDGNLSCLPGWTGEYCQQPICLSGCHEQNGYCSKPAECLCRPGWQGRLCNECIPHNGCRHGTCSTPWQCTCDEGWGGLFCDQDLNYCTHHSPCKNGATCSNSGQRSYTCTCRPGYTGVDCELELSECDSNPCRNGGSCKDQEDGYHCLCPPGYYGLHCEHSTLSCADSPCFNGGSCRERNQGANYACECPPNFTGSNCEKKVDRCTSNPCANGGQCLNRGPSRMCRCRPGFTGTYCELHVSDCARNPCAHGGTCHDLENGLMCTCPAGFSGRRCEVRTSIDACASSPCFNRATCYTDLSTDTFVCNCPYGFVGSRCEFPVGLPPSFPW

Binder	IC50 [1]	IC50 [2]	Kd [3]	Kd [4]	Reporter Assay (EC50, nM) [5]	EC50 [6]	EC50 [7]	EC50 [8]	EC50 [9]	also measured
B1	400 pM	800 pM	12000 pM	27000 pM	3.73 nM	70 pM	90 pM	150 pM	–	–
B2	350 pM	900 pM	13000 pM	35000 pM	5.88 nM	60 pM	90 pM	150 pM	–	–
B3	300 pM	1000 pM	14000 pM	37000 pM	10.4 nM	60 pM	90 pM	160 pM	–	–
B4	250 pM	700 pM	13000 pM	28000 pM	4.1 nM	55 pM	70 pM	140 pM	–	–
B5	200 pM	700 pM	14000 pM	37000 pM	5.4 nM	70 pM	90 pM	130 pM	–	–
B6	400 pM	900 pM	14000 pM	35000 pM	2.89 nM	60 pM	80 pM	160 pM	–	–
B7	300 pM	700 pM	15000 pM	39000 pM	2.61 nM	60 pM	90 pM	120 pM	–	–
B8	–	–	–	–	–	–	–	–	21500 pM	EC50 [10]: 17800 pM
B9	–	–	–	–	–	–	–	–	26900 pM	–
B10	–	–	–	–	–	–	–	–	5570 pM	–
B11	–	–	–	–	–	–	–	–	20600 pM	–
B12	–	–	–	–	–	–	–	–	–	Kd [11]: 1000 pM; koff [11]: 0.000134 s⁻¹; kon [11]: 130000 M⁻¹ s⁻¹; Kd [12]: 1500 pM; koff [12]: 0.000178 s⁻¹; kon [12]: 117000 M⁻¹ s⁻¹; Kd [13]: 1200 pM; koff [13]: 0.000166 s⁻¹; kon [13]: 145000 M⁻¹ s⁻¹; Kd [14]: 410000 pM; koff [14]: 0.0397 s⁻¹; kon [14]: 98200 M⁻¹ s⁻¹
